Laboratory results: the supplement of paper PMC10126150
± gives the standard deviation of the averaged measurements.

tested on: ATP; assay: switch fluorescence ratio, 500 uM ATP over buffer (Cy3 cluster intensity, sum of 5 cycles each) (fold (ratio)); higher = stronger signal-on switching upon ATP binding; sequences stand for … in TCGTCGGCAGCGTCAGATGTGTATAAGAGACAGTTTTTTTTTTTTTTTTTTTTTTTTT…TC; settings: aptamer strand: ATP DNA aptamer (quencher-CACCTGGGGGAGTATTGCGGAGGAAGG + anchor), 100 nM annealed; ATP concentration: 500 uM
Method in brief: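 Per cluster, summed Cy3 intensity from the target cycles was divided by that from the buffer cycles to give the fluorescence ratio, then averaged per switch-domain sequence. Clusters outside 100-1000 RFU were excluded. The Cy3-labelled switching-strand clusters, on a modified Illumina MiSeq flow-cell, were annealed to 100 nM quencher-labelled ATP aptamer and imaged in selection buffer, then after 15 min with 500 uM ATP at 22 °C, for five cycles with NaOH stripping and re-annealing between them.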
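Note: ATP exposure 15 min at 22 °C before imaging.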

Sequence	switch fluorescence ratio
AAAATTTAGC	0.964 ± 0.054
CCAGGTTGTT	1.551 ± 0.0043
GCGTTTTGCA	0.978 ± 0.015
CCATCGGTGG	1 ± 0.047
AGTGGTTGAA	0.99 ± 0.028
GCTGGGAAGG	0.978 ± 0.013
ATATTTTTT	0.9892 ± 0.0038
GCGGACGGAC	1.08 ± 0.061
TAAGGGACGT	1.01 ± 0.034
AATCGCGGCC	1.032 ± 0.0085
CTATGTGTGG	0.976 ± 0.021
AAAAAAGTAG	1.03 ± 0.012
AAACAGGGAG	0.974 ± 0.075
TACCTACTCG	1.18 ± 0.12
GATATTTTTG	1 ± 0.024
ACATGAGAAA	0.988 ± 0.052
AGGTGCAGGC	0.863 ± 0.082
TTAGTTGGGA	0.9828 ± 0.0087
CGGGGACGGT	0.9631 ± 0.0064
CTGTAGGCCC	1.05 ± 0.097
TTATGTTTTG	0.999 ± 0.026
GGGTATGAGG	0.976 ± 0.032

Sequence	switch fluorescence ratio
GGGGGACGCT	0.972 ± 0.039
AGAGGTAAGA	0.9911 ± 0.0084
TTTAGTTTTG	1.017 ± 0.005
GGTAAAGCAT	1.027 ± 0.006
GGATTAGCAG	1.034 ± 0.0075
AGATTGTCTC	0.9573 ± 0.0063
TTTATCGGGG	0.988 ± 0.011
TTTCGCTATG	1.04 ± 0.024
GGCTGGTTTC	0.9969 ± 0.0089
CGAGCTTGAG	0.99 ± 0.002
TTGGACGGGG	1.07 ± 0.035
CTCCGGGGGA	1.33 ± 0.31
CTCGGTTAGG	0.9819 ± 0.0095
GGCGGTATGG	1.01 ± 0.026
CACGAGTTAG	1.0257 ± 0.00055
AGTAATTGGT	0.9954 ± 0.0088
GCGTTACTTA	1.06 ± 0.018
GGGACCGTGC	1.07 ± 0.096
CATGGTGCCC	1.03 ± 0.026
TTTTTAATAT	1.04 ± 0.062
CCTAGCATGG	2.05 ± 0.21
GCTATATTTT	0.982 ± 0.017

Sequence	switch fluorescence ratio
TTTTGAGTAT	0.967 ± 0.035
CCTTTTGTGG	1.015 ± 0.0068
TGGATATGGG	1.01 ± 0.028
GCTGGTTTTG	0.9716 ± 0.004
AGATTTTCCT	1.19 ± 0.35
GGGGGGTACC	1.08 ± 0.13
GCGGGTTTTA	1.006 ± 0.0083
TTTAACTTTG	1.011 ± 0.0084
GCTTGAAGTT	0.991 ± 0.068
GGCAGTAAGA	1.03 ± 0.024
ACGCTGGGGA	0.993 ± 0.016
GAGTGTTCGG	0.988 ± 0.042
TCCGGTTTCG	1.02 ± 0.039
TGGCAATATT	2.31 ± 1.6
GATATTTAGG	1.02 ± 0.038
TTTTTCCTAT	1.012 ± 0.0071
GTATATCCGG	0.975 ± 0.013
CGCACTTGGG	0.99283 ± 0.0007
GCCCGGGATT	1 ± 0.012
GGTACAAGG	1.01 ± 0.029
TTAGGTTTGC	1 ± 0.032
ATTACACTGC	1.01 ± 0.066

Sequence	switch fluorescence ratio
ATCATATTCG	0.99 ± 0.02
ATTAGCATCG	0.981 ± 0.026
GAACTTTCTG	1.006 ± 0.0063
CACGACTCGT	1 ± 0.011
TAGGAAAAAT	1.09 ± 0.19
TACGGAGGGT	1.22 ± 0.31
ATCCGTGATG	1.11 ± 0.051
AGTATGGGGT	0.996 ± 0.018
TAAGTTACAA	1.09 ± 0.019
GTCGGTACTT	0.996 ± 0.012
GCATGACTTT	1.06 ± 0.028
GACGGGGAAA	1.01 ± 0.028
GCGGGGTGTT	1.03 ± 0.013
TGCTTAAGCA	0.982 ± 0.058
CATAAAAACT	1.06 ± 0.017
TGTAGTCCGT	0.982 ± 0.0055
GTATGCGAAG	1.03 ± 0.053
GCCTAATGTT	0.957 ± 0.022
TCGTGAAGCG	1.04 ± 0.025
